Experimental data from the RNAGym collection of RNA variant scans (doi:10.1073/pnas.2313332121).

B1: TPR t1 (parent)
chain: GACCAAUCUGCCCUCAGAGCUCGAGAACAUCUUCGGAUGCAGAGGAGGCAGGCUUCGGUGGCGCGAUAGCGCCAACGUCCUCAACCUCCAAUGCAUCCCACCACAUGAUGAUGCCUGAAGAGCCUUGGUUUUUUG

Variants of: B1
Assay: polymerase ribozyme fitness, log enrichment relative to wild type (log ratio); higher = more active; in vitro selection for triplet polymerase activity
How it was run: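 A heterodimeric triplet polymerase ribozyme had each of its subunits mutagenized by PCR into a library, which was transcribed. One round of in vitro selection, done in triplicate, annealed each library with a biotinylated primer, its partner subunit and triplets, then incubated it frozen at −7 °C before gel excision of extended constructs, streptavidin-bead capture and RT-PCR. Fitness is the logarithm of genotype enrichment relative to wild-type enrichment, based on Illumina sequencing of inputs and outputs and inverse-variance-weighted replicate averages. A base-2 logarithm is used, and genotypes were kept only with ≥10 input reads and ≥1 read per output.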

**Q.** For C64U U112C, which “polymerase ribozyme fitness (log ratio)” value is on record?
**A.** 0.999

**Q.** For C20U G47C A75U A91U, which “polymerase ribozyme fitness (log ratio)” value is on record?
**A.** -4.77

**Q.** For G60A C80G, which “polymerase ribozyme fitness (log ratio)” value is on record?
**A.** -4.53

**Q.** With C8A A68G C73G U78G C101U U112A as the variant, how does the “polymerase ribozyme fitness (log ratio)” value read?
**A.** -5.78

**Q.** Which “polymerase ribozyme fitness (log ratio)” value does the source give for C13A U112C here?
**A.** -0.888

**Q.** With G17A A18C C86G as the variant, how does the “polymerase ribozyme fitness (log ratio)” value read?
**A.** -3.63

**Q.** With G52A C79U G120U as the variant, how does the “polymerase ribozyme fitness (log ratio)” value read?
**A.** -0.265

**Q.** Which “polymerase ribozyme fitness (log ratio)” value does the source give for A6C C8G G44C C64U U78C here?
**A.** -1.41

**Q.** With U92A A121U as the variant, how does the “polymerase ribozyme fitness (log ratio)” value read?
**A.** -0.332

**Q.** For G52C C123G U133G, which “polymerase ribozyme fitness (log ratio)” value is on record?
**A.** 0.949

**Q.** Which “polymerase ribozyme fitness (log ratio)” value does the source give for C8G G10C C73G U81A C88U here?
**A.** -1.77

**Q.** With U7G C49A C70U C85G U130A as the variant, how does the “polymerase ribozyme fitness (log ratio)” value read?
**A.** -2.22

**Q.** With G63C U96A as the variant, how does the “polymerase ribozyme fitness (log ratio)” value read?
**A.** -2.05

**Q.** For U32A C88A C89A A119G, which “polymerase ribozyme fitness (log ratio)” value is on record?
**A.** -4.6

**Q.** For G35A G61C A111C, which “polymerase ribozyme fitness (log ratio)” value is on record?
**A.** -5.93

**Q.** For A24G C56A G60U A83C, which “polymerase ribozyme fitness (log ratio)” value is on record?
**A.** -2.27

**Q.** With A43C C56U C79G as the variant, how does the “polymerase ribozyme fitness (log ratio)” value read?
**A.** -5.29

**Q.** Which “polymerase ribozyme fitness (log ratio)” value does the source give for C22G C79A C94U G110U A119G U133A here?
**A.** -3.44

**Q.** With G58U G60C G117U C123A as the variant, how does the “polymerase ribozyme fitness (log ratio)” value read?
**A.** -2.45

**Q.** For C3A C11G, which “polymerase ribozyme fitness (log ratio)” value is on record?
**A.** -1.08

**Q.** For A74G A91C C124G, which “polymerase ribozyme fitness (log ratio)” value is on record?
**A.** 0.0731

**Q.** With A6U A41G U81A as the variant, how does the “polymerase ribozyme fitness (log ratio)” value read?
**A.** -1.63

**Q.** Which “polymerase ribozyme fitness (log ratio)” value does the source give for G35A G45A here?
**A.** -4.16

**Q.** Which “polymerase ribozyme fitness (log ratio)” value does the source give for G19A C49G C85U A111C here?
**A.** -2.99

**Q.** With C8U G71C U87A as the variant, how does the “polymerase ribozyme fitness (log ratio)” value read?
**A.** -2.97

**Q.** For C13G U32C, which “polymerase ribozyme fitness (log ratio)” value is on record?
**A.** -2.08

**Q.** Which “polymerase ribozyme fitness (log ratio)” value does the source give for G48U C123U here?
**A.** 0.57

**Q.** Which “polymerase ribozyme fitness (log ratio)” value does the source give for A41U G93A U112A here?
**A.** -1.69

**Q.** Which “polymerase ribozyme fitness (log ratio)” value does the source give for G10A C53U G63U here?
**A.** -0.334

**Q.** For C72U A111C, which “polymerase ribozyme fitness (log ratio)” value is on record?
**A.** 0.581

**Q.** For U59G C86U U112C, which “polymerase ribozyme fitness (log ratio)” value is on record?
**A.** 1.02

**Q.** With G61A U131G as the variant, how does the “polymerase ribozyme fitness (log ratio)” value read?
**A.** -0.0143

**Q.** Which “polymerase ribozyme fitness (log ratio)” value does the source give for U7A U14A G44U here?
**A.** -2.04

**Q.** Which “polymerase ribozyme fitness (log ratio)” value does the source give for C101A G113U here?
**A.** -3.79

**Q.** Which “polymerase ribozyme fitness (log ratio)” value does the source give for C3U C86U C101G here?
**A.** -1.68

**Q.** With C88A U130A as the variant, how does the “polymerase ribozyme fitness (log ratio)” value read?
**A.** -2.14

**Q.** With A46U C80A as the variant, how does the “polymerase ribozyme fitness (log ratio)” value read?
**A.** -4.71

**Q.** For G63U U125A, which “polymerase ribozyme fitness (log ratio)” value is on record?
**A.** -1.51

**Q.** With G63A C89A U131G as the variant, how does the “polymerase ribozyme fitness (log ratio)” value read?
**A.** -3.23

**Q.** For A6C C98A, which “polymerase ribozyme fitness (log ratio)” value is on record?
**A.** -4.73

**Q.** With A83C C94U G128A as the variant, how does the “polymerase ribozyme fitness (log ratio)” value read?
**A.** -2.4

**Q.** With U9C C15G A43U U131C as the variant, how does the “polymerase ribozyme fitness (log ratio)” value read?
**A.** -2.2

**Q.** Which “polymerase ribozyme fitness (log ratio)” value does the source give for A5U U21A here?
**A.** 0.185

**Q.** With C56U C124U as the variant, how does the “polymerase ribozyme fitness (log ratio)” value read?
**A.** 1.6

**Q.** Which “polymerase ribozyme fitness (log ratio)” value does the source give for C49A G71U U92A C123U here?
**A.** -2.65

**Q.** With G35A G63A as the variant, how does the “polymerase ribozyme fitness (log ratio)” value read?
**A.** -3.91

**Q.** For C11U G65U C82U C104A U112A, which “polymerase ribozyme fitness (log ratio)” value is on record?
**A.** -6.27

**Q.** With C56U C73G C115U as the variant, how does the “polymerase ribozyme fitness (log ratio)” value read?
**A.** -3.6

**Q.** For A26G G93A, which “polymerase ribozyme fitness (log ratio)” value is on record?
**A.** -2.29

**Q.** For A18C G71A, which “polymerase ribozyme fitness (log ratio)” value is on record?
**A.** -4.91

**Q.** Which “polymerase ribozyme fitness (log ratio)” value does the source give for A18U C22G A66U U78C C82U here?
**A.** -6.51

**Q.** Which “polymerase ribozyme fitness (log ratio)” value does the source give for A74C U126G here?
**A.** -2.5

**Q.** For G47U C73U, which “polymerase ribozyme fitness (log ratio)” value is on record?
**A.** -1.42

**Q.** With A75G C102A as the variant, how does the “polymerase ribozyme fitness (log ratio)” value read?
**A.** -1.52

**Q.** For C13G C70U U112G, which “polymerase ribozyme fitness (log ratio)” value is on record?
**A.** -2.26

**Q.** For C13G C82G C102A, which “polymerase ribozyme fitness (log ratio)” value is on record?
**A.** -4.14

**Q.** With A2C C114U as the variant, how does the “polymerase ribozyme fitness (log ratio)” value read?
**A.** -3.24

**Q.** For G60A, which “polymerase ribozyme fitness (log ratio)” value is on record?
**A.** -0.00692

**Q.** Which “polymerase ribozyme fitness (log ratio)” value does the source give for A18G G48U C72A U130G here?
**A.** -6.5

**Q.** For G44U G60C U87G, which “polymerase ribozyme fitness (log ratio)” value is on record?
**A.** -2.16

**Q.** Which “polymerase ribozyme fitness (log ratio)” value does the source give for G63U C82A here?
**A.** -0.955

**Q.** With C12U G36C G45A as the variant, how does the “polymerase ribozyme fitness (log ratio)” value read?
**A.** -0.823

**Q.** For A26U G45A G77U, which “polymerase ribozyme fitness (log ratio)” value is on record?
**A.** -3.48

**Q.** For C8G A46G C72U G110A, which “polymerase ribozyme fitness (log ratio)” value is on record?
**A.** -0.393

**Q.** For C4G G60U, which “polymerase ribozyme fitness (log ratio)” value is on record?
**A.** -1.18

**Q.** For C40U G57U G120C, which “polymerase ribozyme fitness (log ratio)” value is on record?
**A.** 0.687

**Q.** Which “polymerase ribozyme fitness (log ratio)” value does the source give for U38A A43C A83U C85A here?
**A.** -5.42

**Q.** With A2U C53G C56U G69U as the variant, how does the “polymerase ribozyme fitness (log ratio)” value read?
**A.** -1.92

**Q.** Which “polymerase ribozyme fitness (log ratio)” value does the source give for U9G G39A C64U G93C C94G here?
**A.** -4.56

**Q.** With G51U C72A as the variant, how does the “polymerase ribozyme fitness (log ratio)” value read?
**A.** -2.55

**Q.** Which “polymerase ribozyme fitness (log ratio)” value does the source give for G47U G127A here?
**A.** -2.68

**Q.** With G113C U125A as the variant, how does the “polymerase ribozyme fitness (log ratio)” value read?
**A.** -3.4

**Q.** With C34A A37C C72U A118G as the variant, how does the “polymerase ribozyme fitness (log ratio)” value read?
**A.** -2.87

**Q.** For A41G U55A C56U C72G A118U, which “polymerase ribozyme fitness (log ratio)” value is on record?
**A.** -0.698

**Q.** Which “polymerase ribozyme fitness (log ratio)” value does the source give for C64A C123G here?
**A.** -3.71

**Q.** With G17A C89G as the variant, how does the “polymerase ribozyme fitness (log ratio)” value read?
**A.** -3.97

**Q.** With U38A C94G as the variant, how does the “polymerase ribozyme fitness (log ratio)” value read?
**A.** -2.2

**Q.** With C3U C53G C89G as the variant, how does the “polymerase ribozyme fitness (log ratio)” value read?
**A.** -1.41

**Q.** With G39C U126A as the variant, how does the “polymerase ribozyme fitness (log ratio)” value read?
**A.** -2.89

**Q.** For C56G C94A, which “polymerase ribozyme fitness (log ratio)” value is on record?
**A.** -0.555

**Q.** With C49A C62A G71U G117A U130C as the variant, how does the “polymerase ribozyme fitness (log ratio)” value read?
**A.** -1.49

**Q.** With A27U G47A U59A U106G U133G as the variant, how does the “polymerase ribozyme fitness (log ratio)” value read?
**A.** -4.03

**Q.** Which “polymerase ribozyme fitness (log ratio)” value does the source give for U21A A24G here?
**A.** -1.64

**Q.** Which “polymerase ribozyme fitness (log ratio)” value does the source give for C56U C64U A74G here?
**A.** -3.32
